Data from the MegaScale stability set (Tsuboyama et al. 2023).

B1: HEEH_KT_rd6_0007 (parent)
chain: SIEEEIKKAEEAKEKGKTFIHGDFVATTEELLDELLKRLRKKL

Variants of: B1
Assay: folding stability dG (cDNA display proteolysis); higher = more stable
Conditions: PBS, room temperature

Folding stability dG [kcal/mol], by site and new letter:
D23: Y 1.3 | H 1.02 | K 1.06 | G 1.16 | T 1.36 | V 1.38 | M 1.26 | S 1.36 | E 1.16 | R 0.773 | N 1.4 | L 1.31 | P 0.958 | I 1.52 | A 1.26 | F 1.48 | C 1.91 | W 1.64 | Q 1.14
E11: Q 1.06 | R 0.941 | T 1.04 | S 0.928 | Y 1.17 | V 0.953 | W 1.2
A26: Q 0.685 | D 0.604 | S 0.724 | I 1.27 | R 0.603 | P 0.691 | C 1.24 | G 0.7 | E 0.506 | M 0.854 | L 1.03 | N 0.638 | Y 1.6 | V 0.954 | W 1.24 | H 0.502 | K 0.515 | F 1.2 | T 0.686
F19: Q 0.715 | A 0.757 | N 0.745 | L 0.751 | R 0.752 | H 0.937 | M 0.895 | G 0.793 | S 0.618 | I 0.902 | E 0.58 | K 0.811 | Y 1.49 | D 0.713 | P 0.637 | V 0.861 | W 0.964 | T 0.77
K13: M 1.01 | N 0.575 | R 1.3 | C 1.82 | W 1.09 | E 0.58 | A 0.86 | D 0.676 | S 0.704 | I 0.852 | G 0.684 | Q 0.869 | Y 1.07 | L 1.16 | V 0.79 | H 0.747 | P 0.543 | F 0.912 | T 0.5
G16: N 1.08 | H 1.25 | K 1.3 | Y 1.12 | L 1.22 | T 0.757 | A 0.667 | M 0.701 | V 0.73 | W 1.3 | F 1.2 | D 0.785 | I 1.03 | R 0.873 | Q 0.935 | S 0.957 | E 0.895 | P 0.298
A12: F 0.689 | H 0.753 | Y 0.791 | L 0.688 | W 0.691 | R 0.639 | C 1.78 | V 0.505 | M 0.749 | P 0.459 | T 0.618 | E 0.703 | S 0.754 | N 0.603 | D 0.737 | G 0.482 | Q 0.606 | K 0.526 | I 0.771
E29: G 1.32 | K 1.52 | F 1.47 | M 1.63 | H 1.2 | I 1.76 | A 1.63 | D 1.21 | C 2.15 | N 1.26 | L 1.64
G22: A 0.902 | M 1.15 | V 1.09 | W 1.53 | L 1.2 | S 0.873 | R 0.665 | D 0.958 | N 0.979 | I 1.45 | Q 0.893 | Y 1.23 | T 0.814 | P 0.931 | F 1.14 | H 1.02 | K 0.822 | E 1.12
I20: N 0.801 | C 2.04 | T 1.25 | Q 1.27 | V 1.27 | P 0.732 | M 0.979 | D 0.774 | F 0.891 | H 0.961 | S 0.913 | R 0.918 | K 0.994 | G 0.637 | L 0.842 | E 0.927 | W 1.13 | A 1.03 | Y 1.02
K15: G 1.08 | P 0.667 | S 1.19 | D 0.807 | V 0.735 | N 1.32 | I 0.793 | Y 1.13 | E 0.916 | M 1.37 | H 1.3 | T 1.29 | W 1.07 | R 1.19 | A 1.33 | F 1.15 | L 1.4 | Q 1.4
V25: I 1.41 | D 0.749 | E 1.05 | K 0.938 | Q 1.07 | C 1.94 | Y 1.23 | W 1.39 | L 1.11 | A 1.1 | F 1.31 | N 0.974 | R 0.704 | M 1.18 | H 1.28 | P 0.68 | T 0.907 | S 0.912 | G 0.704
E14: P 0.587 | A 1.73 | K 1.56 | I 1.45 | Q 1.42 | N 1.21 | F 1.31 | Y 1.33 | H 1.21 | W 1.37 | V 1.25 | S 1.4 | T 1.3 | M 1.42 | L 1.58 | D 1.1 | R 1.68 | G 1.19
F24: P 0.489 | K 0.243 | Y 1.02 | S 0.627 | N 0.509 | W 1.22 | Q 0.726 | A 0.492 | H 0.746 | I 1.03 | E 0.854 | M 0.889 | T 0.846 | R -0.367 | L 0.965 | V 0.78 | C 1.49 | D 0.649 | G 0.708
H21: W 1.78 | F 1.52 | Q 1.03 | E 0.742 | S 1.39 | L 1.29 | G 0.81 | R 0.838 | K 0.812 | I 1.03 | P 0.759 | A 0.946 | T 0.971 | M 1.08 | Y 1.76 | V 1.04 | N 0.77 | D 0.707
K17: I 1.59 | A 1.23 | V 1.43 | E 1.67 | Y 1.71 | N 1.36 | F 1.82 | L 1.9 | C 2.53 | G 1.48 | T 1.43 | H 1.44 | S 1.18 | R 1.13 | W 1.84 | Q 1.47 | D 1.19 | P 0.793 | M 1.66
T27: G 1.08 | F 1.55 | Y 1.62 | A 1.27 | M 1.17 | W 1.66 | S 1.57 | Q 0.865 | C 1.76 | V 1.09 | K 1.09 | I 1.11 | R 0.962 | P 0.51 | E 1.24 | H 1.41 | N 1.98 | D 2.16 | L 1.22
T28: I 1.31 | K 0.472 | R 0.557 | P 0.562 | A 0.936 | G 0.966 | D 0.797 | Y 0.985 | S 1.15 | C 1.98 | F 1.32 | W 1.19 | L 1.3 | M 1.34 | N 1.09 | E 0.679 | H 0.534 | Q 0.473 | V 1.17
T18: I 1.67 | K 1.1 | Q 1.28 | G 1.23 | Y 1.37 | R 1.09 | A 1.3 | W 1.76 | P 1.32 | H 1.16 | F 1.3 | N 1.07 | V 1.48 | M 1.32 | S 1.21 | D 0.988 | E 1.12 | L 1.07
